The source of these data is US20180155451A1 (published 2018).

Assay [1] has as its target T1, FcγRIIa H (human, UniProt P12318 34-217).
T1 construct: extracellular domain; also called FcgRIIa H type; 2aH
T1 sequence (looked up): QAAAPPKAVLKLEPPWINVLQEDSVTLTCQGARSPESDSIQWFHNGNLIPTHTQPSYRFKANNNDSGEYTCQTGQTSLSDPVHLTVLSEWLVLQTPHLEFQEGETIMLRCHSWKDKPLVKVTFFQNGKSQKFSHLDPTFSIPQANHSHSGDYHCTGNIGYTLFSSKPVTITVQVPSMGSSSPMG
Kind of assay: ratio of He/Con_2aH to He/Con_2b (relative SPR binding to FcγRIIa H over that of the same antibody to FcγRIIb).

Assay [2] deals with T1, FcγRIIa H. The experiment in a line: SPR (Biacore), antibody captured on antigen-peptide chip, FcγR as analyte; binding relative to GpH7-A5/GpH7-B3/GpL16-k0 = 100.
Another assay deals with T2, FcγRIIb (human, UniProt P31994 43-217).
T2 construct: extracellular domain; also called FcgRIIb; 2b
T2 sequence (looked up): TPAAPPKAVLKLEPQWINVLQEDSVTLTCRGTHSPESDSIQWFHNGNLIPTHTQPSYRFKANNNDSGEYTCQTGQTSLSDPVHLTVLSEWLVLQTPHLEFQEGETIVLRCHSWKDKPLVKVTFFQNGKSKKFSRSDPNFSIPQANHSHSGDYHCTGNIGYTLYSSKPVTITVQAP
The assay is described as above.

Assay [3] has as its target T3, FcγRIIa R (extracellular domain, C-terminal His tag) (human, UniProt P12318 34-217).
T3 construct: extracellular domain; also called FcgRIIa R type; 2aR; not shown: His tag attached to the C terminus
T3 sequence (looked up): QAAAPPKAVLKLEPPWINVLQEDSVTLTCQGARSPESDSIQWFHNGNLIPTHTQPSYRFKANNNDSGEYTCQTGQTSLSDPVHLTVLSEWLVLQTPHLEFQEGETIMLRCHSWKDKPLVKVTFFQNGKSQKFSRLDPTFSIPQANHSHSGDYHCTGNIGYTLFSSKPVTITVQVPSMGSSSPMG
Kind of assay: SPR (Biacore), antibody captured on antigen-peptide chip, FcγR as analyte; relative binding amount. Here is the method:
(§1) The heterodimerized antibodies He Abs in which one of the H chains was introduced with an alteration were assayed for their binding activities to each activating FcγR and inhibitory FcγR according to the method described in Example 4. […] The activating FcγRs in FIGS. 26, 27, 28, and 29 are FcγRIa, FcγRIIa (R), FcγRIIa (H), and FcγRIIIa, respectively.
(§2) Analysis of interaction between objective antibody and the FcγR was carried out using Biacore T100 (GE Healthcare). HBS-EP+ (GE Healthcare) was used as the running buffer, and the measurement temperature was set to 25° C. Chips produced by immobilizing the antigen peptide by the amine coupling method to a Series S Sencor Chip CM5 (GE Healthcare), or alternatively, chips produced by allowing preliminarily biotinylated antigen peptides to interact with and immobilize onto a Series S Sensor Chip SA (certified) (GE Healthcare) were used. Antibodies of interest were captured onto an antigen peptide-immobilized chip, and allowed to interact to each FcγR diluted with running buffer. To regenerate and repeatedly use the chip, the antibodies captured on the chip were washed off by reacting 10 mM glycine-HCl, pH 1.5.

Assay [4] addresses T4, FcγRIIb (extracellular domain, C-terminal His tag) (human, UniProt P31994 43-217).
T4 construct: extracellular domain; also called FcgRIIb; 2b; not shown: His tag attached to the C terminus
T4 sequence (looked up): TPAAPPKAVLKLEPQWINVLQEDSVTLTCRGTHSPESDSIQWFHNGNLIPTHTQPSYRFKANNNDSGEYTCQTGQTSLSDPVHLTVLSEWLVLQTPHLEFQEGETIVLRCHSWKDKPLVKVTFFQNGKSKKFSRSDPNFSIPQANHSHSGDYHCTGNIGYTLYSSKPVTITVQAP
Described as above. The protocol:
as §1, §2

The target in assay [5] is T3, FcγRIIa R (extracellular domain, …). Kind of assay: ratio of He/Con_2aR to He/Con_2b (FcγRIIb); SPR relative binding. Here is the method: as §1, §2

B1: GpH7-A5/GpH7-B3 variant D265_12R/GpL16-k0 (antibody, human IgG1, kappa)
heavy 1: not shown
heavy 2: not shown
light: DIVMTQSPLSLPVTPGEPASISCQASESLVHSNRNTYLHWYLQKPGQSPQLLIYKVSNRFSGVPDRFSGSGSGTDFTLKISRVEAEDVGVYYCSQNTHVPPTFGQGTKVEIERTVAAPSVFIFPPSDEQLKSGTASVVCLLNNFYPREAKVQWKVDNALQSGNSQESVTEQDSKDSTYSLSSTLTLSKADYEKHKVYACEVTHQGLSSPVTKSFNRGEC
notes: Heterodimerized anti-glypican-3 IgG1; substitution in only one H chain (the GpH7-B3 chain); also called He Ab
On to B1, for which the “He_2aH/2b (IIaH/IIb)” value with FcγRIIa H [1] is 1.87. In addition, the He/Con_2aH in the assay with FcγRIIa H [2] is 28 % of HeCon Ab. Also, the He/Con_2b in the assay with FcγRIIb was 15 % of HeCon Ab.

B2: GpH7-A5/GpH7-B3 variant D265_07I/GpL16-k0 (antibody, human IgG1, kappa)
heavy 1: not shown
heavy 2: not shown
light: DIVMTQSPLSLPVTPGEPASISCQASESLVHSNRNTYLHWYLQKPGQSPQLLIYKVSNRFSGVPDRFSGSGSGTDFTLKISRVEAEDVGVYYCSQNTHVPPTFGQGTKVEIERTVAAPSVFIFPPSDEQLKSGTASVVCLLNNFYPREAKVQWKVDNALQSGNSQESVTEQDSKDSTYSLSSTLTLSKADYEKHKVYACEVTHQGLSSPVTKSFNRGEC
notes: as for B1
B2: the “He_2aH/2b (IIaH/IIb)” value in the assay with FcγRIIa H [1] was 2.35. Moreover, in the assay with FcγRIIa H [2], the He/Con_2aH is 3.1 % of HeCon Ab. The He/Con_2b with FcγRIIb was 1.3 % of HeCon Ab.

B3: GpH7-A5/GpH7-B3 variant D265_15Y/GpL16-k0 (antibody, human IgG1, kappa)
heavy 1: not shown
heavy 2: not shown
light: DIVMTQSPLSLPVTPGEPASISCQASESLVHSNRNTYLHWYLQKPGQSPQLLIYKVSNRFSGVPDRFSGSGSGTDFTLKISRVEAEDVGVYYCSQNTHVPPTFGQGTKVEIERTVAAPSVFIFPPSDEQLKSGTASVVCLLNNFYPREAKVQWKVDNALQSGNSQESVTEQDSKDSTYSLSSTLTLSKADYEKHKVYACEVTHQGLSSPVTKSFNRGEC
notes: as for B1
Consider B3, for which, in the assay with FcγRIIa H [1], the “He_2aH/2b (IIaH/IIb)” value turned out to be 6.07. Also, in the assay with FcγRIIa H [2], the He/Con_2aH is 3.7 % of HeCon Ab. The He/Con_2b with FcγRIIb was 0.6 % of HeCon Ab.

B4: GpH7-A5/GpH7-B3 variant S239_15Y/GpL16-k0 (antibody, human IgG1, kappa)
heavy 1: not shown
heavy 2: not shown
light: DIVMTQSPLSLPVTPGEPASISCQASESLVHSNRNTYLHWYLQKPGQSPQLLIYKVSNRFSGVPDRFSGSGSGTDFTLKISRVEAEDVGVYYCSQNTHVPPTFGQGTKVEIERTVAAPSVFIFPPSDEQLKSGTASVVCLLNNFYPREAKVQWKVDNALQSGNSQESVTEQDSKDSTYSLSSTLTLSKADYEKHKVYACEVTHQGLSSPVTKSFNRGEC
notes: Heterodimerized anti-glypican-3 IgG1; alteration in only one H chain (GpH7-B3 side); also called He Ab
In the case of B4, the He/Con_2aR in assay [3] is 42.2 % of control (GpH7-A5/GpH7-B3/GpL16-k0 = 100). In addition, the He/Con_2b in assay [4] is 34.9 % of control (GpH7-A5/GpH7-B3/GpL16-k0 = 100). For the same molecule, the “He_2aR/2b (IIaR/IIb)” value in assay [5] was found to be 1.21.

B5: GpH7-A5/GpH7-B3 variant S239_16H/GpL16-k0 (antibody, human IgG1, kappa)
heavy 1: not shown
heavy 2: not shown
light: DIVMTQSPLSLPVTPGEPASISCQASESLVHSNRNTYLHWYLQKPGQSPQLLIYKVSNRFSGVPDRFSGSGSGTDFTLKISRVEAEDVGVYYCSQNTHVPPTFGQGTKVEIERTVAAPSVFIFPPSDEQLKSGTASVVCLLNNFYPREAKVQWKVDNALQSGNSQESVTEQDSKDSTYSLSSTLTLSKADYEKHKVYACEVTHQGLSSPVTKSFNRGEC
notes: as for B4
As to B5, the He/Con_2aR in assay [3] is 69.2 % of control (GpH7-A5/GpH7-B3/GpL16-k0 = 100). In assay [4], the He/Con_2b is 49.4 % of control (GpH7-A5/GpH7-B3/GpL16-k0 = 100). For the same molecule, the “He_2aR/2b (IIaR/IIb)” value in assay [5] turned out to be 1.4.

B6: GpH7-A5/GpH7-B3 variant D265_16H/GpL16-k0 (antibody, human IgG1, kappa)
heavy 1: not shown
heavy 2: not shown
light: DIVMTQSPLSLPVTPGEPASISCQASESLVHSNRNTYLHWYLQKPGQSPQLLIYKVSNRFSGVPDRFSGSGSGTDFTLKISRVEAEDVGVYYCSQNTHVPPTFGQGTKVEIERTVAAPSVFIFPPSDEQLKSGTASVVCLLNNFYPREAKVQWKVDNALQSGNSQESVTEQDSKDSTYSLSSTLTLSKADYEKHKVYACEVTHQGLSSPVTKSFNRGEC
notes: as for B1
For the molecule B6, the “He_2aH/2b (IIaH/IIb)” value in the assay with FcγRIIa H [1] amounted to 1.27. Further, in the assay with FcγRIIa H [2], the He/Con_2aH was 48.6 % of HeCon Ab. Moreover, the He/Con_2b in the assay with FcγRIIb is 38.3 % of HeCon Ab.

B7: GpH7-A5/GpH7-B3 variant D265_14T/GpL16-k0 (antibody, human IgG1, kappa)
heavy 1: not shown
heavy 2: not shown
light: DIVMTQSPLSLPVTPGEPASISCQASESLVHSNRNTYLHWYLQKPGQSPQLLIYKVSNRFSGVPDRFSGSGSGTDFTLKISRVEAEDVGVYYCSQNTHVPPTFGQGTKVEIERTVAAPSVFIFPPSDEQLKSGTASVVCLLNNFYPREAKVQWKVDNALQSGNSQESVTEQDSKDSTYSLSSTLTLSKADYEKHKVYACEVTHQGLSSPVTKSFNRGEC
notes: as for B1
With B7, in the assay with FcγRIIa H [1], the “He_2aH/2b (IIaH/IIb)” value was determined as 1.5. Besides, in the assay with FcγRIIa H [2], the He/Con_2aH is 24.1 % of HeCon Ab. The He/Con_2b with FcγRIIb is 16 % of HeCon Ab.
